PMC4451130

Tests used:
[1] = target: Glu-plasminogen (Plg) (human); experiment: ELISA
[2] = target: Fibrinogen (FG), human plasma, plasminogen-depleted (human) (UniProt P02671); experiment: ELISA
UniProt P02671, sequence (P02671 36-866, chain 1 of 3): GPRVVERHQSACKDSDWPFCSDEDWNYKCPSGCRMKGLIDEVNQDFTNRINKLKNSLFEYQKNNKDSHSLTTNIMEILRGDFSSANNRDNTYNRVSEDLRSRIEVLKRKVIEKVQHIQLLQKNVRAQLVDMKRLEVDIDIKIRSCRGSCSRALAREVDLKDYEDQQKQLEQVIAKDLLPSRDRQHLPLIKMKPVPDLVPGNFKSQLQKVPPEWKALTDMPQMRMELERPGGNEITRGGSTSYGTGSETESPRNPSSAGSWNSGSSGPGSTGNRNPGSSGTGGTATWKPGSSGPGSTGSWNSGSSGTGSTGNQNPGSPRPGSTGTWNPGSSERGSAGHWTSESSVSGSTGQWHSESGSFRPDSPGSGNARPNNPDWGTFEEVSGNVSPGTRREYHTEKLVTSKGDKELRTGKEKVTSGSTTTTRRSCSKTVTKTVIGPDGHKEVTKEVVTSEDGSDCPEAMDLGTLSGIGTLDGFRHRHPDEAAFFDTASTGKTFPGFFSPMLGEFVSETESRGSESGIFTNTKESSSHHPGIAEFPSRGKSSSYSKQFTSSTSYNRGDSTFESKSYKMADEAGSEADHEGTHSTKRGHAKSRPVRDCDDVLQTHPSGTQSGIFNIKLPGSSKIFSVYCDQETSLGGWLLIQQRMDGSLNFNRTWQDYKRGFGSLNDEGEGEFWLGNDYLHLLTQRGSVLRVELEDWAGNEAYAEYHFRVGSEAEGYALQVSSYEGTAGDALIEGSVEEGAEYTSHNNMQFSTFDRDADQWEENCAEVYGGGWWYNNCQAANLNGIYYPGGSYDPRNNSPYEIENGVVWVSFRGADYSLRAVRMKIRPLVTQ
UniProt P02671, sequence (P02675 45-491, chain 2 of 3, further chain): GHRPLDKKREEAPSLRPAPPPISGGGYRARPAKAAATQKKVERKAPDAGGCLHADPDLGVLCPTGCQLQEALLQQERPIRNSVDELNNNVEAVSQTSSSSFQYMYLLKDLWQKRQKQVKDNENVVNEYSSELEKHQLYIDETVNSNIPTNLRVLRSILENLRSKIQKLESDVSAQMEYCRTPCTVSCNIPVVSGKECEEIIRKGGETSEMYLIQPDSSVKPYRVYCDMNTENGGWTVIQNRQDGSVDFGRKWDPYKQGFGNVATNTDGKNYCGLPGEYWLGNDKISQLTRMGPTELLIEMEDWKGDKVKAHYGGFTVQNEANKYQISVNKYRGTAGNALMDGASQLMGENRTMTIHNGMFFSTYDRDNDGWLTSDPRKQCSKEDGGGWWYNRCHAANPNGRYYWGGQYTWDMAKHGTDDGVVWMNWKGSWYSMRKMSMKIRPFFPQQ
UniProt P02671, sequence (P02679 27-453, chain 3 of 3, further chain): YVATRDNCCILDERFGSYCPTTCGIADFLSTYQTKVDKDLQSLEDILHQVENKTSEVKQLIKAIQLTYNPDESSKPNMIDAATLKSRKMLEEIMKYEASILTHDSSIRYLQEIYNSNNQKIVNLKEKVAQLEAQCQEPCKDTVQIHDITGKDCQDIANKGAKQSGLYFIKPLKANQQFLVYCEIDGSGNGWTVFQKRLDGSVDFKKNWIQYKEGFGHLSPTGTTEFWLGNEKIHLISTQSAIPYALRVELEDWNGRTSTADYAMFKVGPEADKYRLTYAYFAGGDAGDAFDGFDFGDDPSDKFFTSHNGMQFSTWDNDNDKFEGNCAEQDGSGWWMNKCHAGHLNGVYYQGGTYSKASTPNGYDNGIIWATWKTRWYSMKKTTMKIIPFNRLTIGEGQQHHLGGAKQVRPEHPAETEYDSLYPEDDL

Glu-plasminogen (Plg) (human), sequence (P00747 20-810): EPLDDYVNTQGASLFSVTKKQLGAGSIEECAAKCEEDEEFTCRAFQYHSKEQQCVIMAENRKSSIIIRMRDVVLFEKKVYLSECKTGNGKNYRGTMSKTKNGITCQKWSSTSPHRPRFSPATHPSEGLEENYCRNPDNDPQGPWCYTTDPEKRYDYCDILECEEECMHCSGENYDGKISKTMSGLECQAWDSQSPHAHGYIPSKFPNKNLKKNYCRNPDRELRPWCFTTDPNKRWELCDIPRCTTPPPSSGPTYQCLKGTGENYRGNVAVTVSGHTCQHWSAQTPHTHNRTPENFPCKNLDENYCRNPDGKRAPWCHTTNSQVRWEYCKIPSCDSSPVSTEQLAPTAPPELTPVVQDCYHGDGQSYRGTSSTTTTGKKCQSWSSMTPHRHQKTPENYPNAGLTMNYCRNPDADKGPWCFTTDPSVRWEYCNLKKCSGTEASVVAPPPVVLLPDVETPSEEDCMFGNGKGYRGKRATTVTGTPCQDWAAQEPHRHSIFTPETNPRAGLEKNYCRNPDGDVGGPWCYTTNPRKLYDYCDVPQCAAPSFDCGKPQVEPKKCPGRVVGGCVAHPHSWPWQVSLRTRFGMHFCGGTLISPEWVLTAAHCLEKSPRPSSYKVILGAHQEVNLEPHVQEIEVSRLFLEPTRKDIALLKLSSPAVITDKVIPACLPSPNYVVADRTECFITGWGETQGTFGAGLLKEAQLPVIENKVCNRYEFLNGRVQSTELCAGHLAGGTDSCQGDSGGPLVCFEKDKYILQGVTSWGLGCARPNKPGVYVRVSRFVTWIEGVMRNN

Kd [1]: 66.7 nM | Kd [2]: 31.2 nM
Substance: Biotin-conjugated PTX3 (b-PTX3) (from UniProt P26022 18-381) (natural protein)
